# Measurements as given in IntAct's records for PubMed 25533949.
# B1: Tyrosine--tRNA ligase, cytoplasmic (Homo sapiens), P54577 (parent)
# chain: MGDAPSPEEKLHLITRNLQEVLGEEKLKEILKERELKIYWGTATTGKPHVAYFVPMSKIADFLKAGCEVTILFADLHAYLDNMKAPWELLELRVSYYENVIKAMLESIGVPLEKLKFIKGTDYQLSKEYTLDVYRLSSVVTQHDSKKAGAEVVKQVEHPLLSGLLYPGLQALDEEYLKVDAQFGGIDQRKIFTFAEKYLPALGYSKRVHLMNPMVPGLTGSKMSSSEEESKIDLLDRKEDVKKKLKKAFCEPGNVENNGVLSFIKHVLFPLKSEFVILRDEKWGGNKTYTAYVDLEKDFAAEVVHPGDLKNSVEVALNKLLDPIREKFNTPALKKLASAAYPDPSKQKPMAKGPAKNSEPEEVIPSRLDIRVGKIITVEKHPDADSLYVEKIDVGEAEPRTVVSGLVQFVPKEELQDRLVVVLCNLKPQKMRGVESQGMLLCASIEGINRQVEPLDPPAGSAPGEHVFVKGYEKGQPDEELKPKKKVFEKLQADFKISEECIAQWKQTNFMTKLGSISCKSLKGGNIS
# Variants of: B1
# Details: with parp1_human PARP1, P09874
# Chain of parp1_human PARP1, P09874 (P09874 whole entry): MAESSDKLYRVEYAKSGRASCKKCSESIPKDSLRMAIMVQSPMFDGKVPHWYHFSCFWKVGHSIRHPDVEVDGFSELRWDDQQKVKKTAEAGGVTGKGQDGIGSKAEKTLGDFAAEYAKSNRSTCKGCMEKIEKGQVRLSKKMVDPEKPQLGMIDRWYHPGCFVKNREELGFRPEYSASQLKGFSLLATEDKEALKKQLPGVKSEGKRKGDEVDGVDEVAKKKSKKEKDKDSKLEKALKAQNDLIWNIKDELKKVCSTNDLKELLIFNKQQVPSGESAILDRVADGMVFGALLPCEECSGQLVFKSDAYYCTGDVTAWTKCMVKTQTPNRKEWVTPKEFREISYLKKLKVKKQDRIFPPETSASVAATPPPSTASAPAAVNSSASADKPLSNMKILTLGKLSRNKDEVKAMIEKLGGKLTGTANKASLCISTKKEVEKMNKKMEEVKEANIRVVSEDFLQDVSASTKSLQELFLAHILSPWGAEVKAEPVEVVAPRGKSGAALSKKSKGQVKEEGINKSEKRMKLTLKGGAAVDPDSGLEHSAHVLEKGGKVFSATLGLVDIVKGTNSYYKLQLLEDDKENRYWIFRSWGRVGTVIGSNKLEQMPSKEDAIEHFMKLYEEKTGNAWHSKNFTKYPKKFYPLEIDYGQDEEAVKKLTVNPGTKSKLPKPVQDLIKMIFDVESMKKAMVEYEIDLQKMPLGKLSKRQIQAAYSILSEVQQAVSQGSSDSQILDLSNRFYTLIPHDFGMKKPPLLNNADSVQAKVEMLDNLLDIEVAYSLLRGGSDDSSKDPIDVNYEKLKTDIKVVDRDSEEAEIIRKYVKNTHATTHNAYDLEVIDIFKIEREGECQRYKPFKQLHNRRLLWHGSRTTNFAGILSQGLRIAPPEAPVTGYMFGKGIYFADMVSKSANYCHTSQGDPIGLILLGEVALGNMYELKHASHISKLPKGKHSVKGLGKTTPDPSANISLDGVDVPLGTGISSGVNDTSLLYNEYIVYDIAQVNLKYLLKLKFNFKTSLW
row,effect of a mutation on the interaction,Variant
1,increasing interaction strength,MGDAPSPEEKLHLITRNLQEVLGEEKLKEILKERELKIYWGTATTGKPHVAYFVPMSKIADFLKAGCEVTILFADLHAYLDNMKAPWELLELRVSYYENVIKAMLESIGVPLEKLKFIKGTDYQLSKEYTLDVYRLSSVVTQHDSKKAGAEVVKQVEHPLLSGLLYPGLQALDEEYLKVDAQFGGIDQRKIFTFAEKYLPALGYSKRVHLMNPMVPGLTGSKMSSSEEESKIDLLDRKEDVKKKLKKAFCEPGNVENNGVLSFIKHVLFPLKSEFVILRDEKWGGNKTYTAYVDLEKDFAAEVVHPGDLKNSVEVALNKLLDPIREKFNTPALKKLASAAAPDPSKQKPMAKGPAKNSEPEEVIPSRLDIRVGKIITVEKHPDADSLYVEKIDVGEAEPRTVVSGLVQFVPKEELQDRLVVVLCNLKPQKMRGVESQGMLLCASIEGINRQVEPLDPPAGSAPGEHVFVKGYEKGQPDEELKPKKKVFEKLQADFKISEECIAQWKQTNFMTKLGSISCKSLKGGNIS [Y341A]
